The values below come from paper PMC6226484.

The target in this assay is Avi-barnase (G34C/H102A), biotinylated, labeled with Alexa 488. In words: FRET or BRET; single-molecule FRET; donor-labeled barnase immobilised on PEG-coated glass via biotin-NeutrAvidin, acceptor-labeled barstar (20 nM) in solution; 10 mM Tris pH 7, 0 mM NaCl and higher (printed kA at 0 mM NaCl); 22 °C; illumination 0.3 μW; two-state maximum likelihood analysis with correction for acceptor photobleaching.

For orientation: kon means a measure of how fast the partners come together. For “Cys-barstar, labeled with Alexa 647 (natural protein)”, the kon was 1e+08 M⁻¹ s⁻¹.
